In patent US20190100563A1 (UNIVERSITY COURT OF THE UNIVERSITY OF EDINBURGH, published 2019):

B1: Human complement factor H purified from plasma (other)
chain: EDCNELPPRRNTEILTGSWSDQTYPEGTQAIYKCRPGYRSLGNVIMVCRKGEWVALNPLRKCQKRPCGHPGDTPFGTFTLTGGNVFEYGVKAVYTCNEGYQLLGEINYRECDTDGWTNDIPICEVVKCLPVTAPENGKIVSSAMEPDREYHFGQAVRFVCNSGYKIEGDEEMHCSDDGFWSKEKPKCVEISCKSPDVINGSPISQKIIYKENERFQYKCNMGYEYSERGDAVCTESGWRPLPSCEEKSCDNPYIPNGDYSPLRIKHRTGDEITYQCRNGFYPATRGNTAKCTSTGWIPAPRCTLKPCDYPDIKHGGLYHENMRRPYFPVAVGKYYSYYCDEHFETPSGSYWDHIHCTQDGWSPAVPCLRKCYFPYLENGYNQNYGRKFVQGKSIDVACHPGYALPKAQTTVTCMENGWSPTPRCIRVKTCSKSSIDIENGFISESQYTYALKEKAKYQCKLGYVTADGETSGSITCGKDGWSAQPTCIKSCDIPVFMNARTKNDFTWFKLNDTLDYECHDGYESNTGSTTGSIVCGYNGWSDLPICYERECELPKIDVHLVPDRKKDQYKVGEVLKFSCKPGFTIVGPNSVQCYHFGLSPDLPICKEQVQSCGPPPELLNGNVKEKTKEEYGHSEVVEYYCNPRFLMKGPNKIQCVDGEWTTLPVCIVEESTCGDIPELEHGWAQLSSPPYYYGDSVEFNCSESFTMIGHRSITCIHGVWTQLPQCVAIDKLKKCKSSNLIILEEHLKNKKEFDHNSNIRYRCRGKEGWIHTVCINGRWDPEVNCSMAQIQLCPPPPQIPNSHNMTTTLNYRDGEKVSVLCQENYLIQEGEEITCKDGRWQSIPLCVEKIPCSQPPQIEHGTINSSRSSQESYAHGTKLSYTCEGGFRISEENETTCYMGKWSSPPQCEGLPCKSPPEISHGVVAHMSDSYQYGEEVTYKCFEGFGIDGPAIAKCLGEKWSHPPSCIKTDCLSLPSFENAIPMGEKKDVYKAGEQVTYTCATYYKMDGASNVTCINSRWTGRPTCRDTSCVNPPTVQNAYIVSRQMSKYPSGERVRYQCRSPYEMFGDEEVMCLNGNWTEPPQCKDSTGKCGPPPPIDNGDITSFPLSVYAPASSVEYQCQNLYQLEGNKRITCRNGQWSEPPKCLHPCVISREIMENYNIALRWTAKQKLYSRTGESVEFVCKRGYRLSSRSHTLRTTCWDGKLEYPTCAKR
notes: also called Plasma CFH; plasma-purified CFH

Assays:
[1] = target: Human complement factor H purified from plasma (human) (UniProt P08603); experiment: SPR, immobilised TIGR4 fragment, FH as analyte
[2] = target: Human complement factor H purified from plasma (human) (UniProt P08603); experiment: SPR
[3] = target: Human complement factor H purified from plasma (human) (UniProt P08603); experiment: SPR, TIGR4 fragment on NTA chip, CFH as analyte
[4] = target: Human C3d (plasma-purified) (human) (UniProt P01024); experiment: SPR (Biacore), coupled C3d
Sequence of Human C3d (plasma-purified) (human) (P01024 1002-1303 limits assumed): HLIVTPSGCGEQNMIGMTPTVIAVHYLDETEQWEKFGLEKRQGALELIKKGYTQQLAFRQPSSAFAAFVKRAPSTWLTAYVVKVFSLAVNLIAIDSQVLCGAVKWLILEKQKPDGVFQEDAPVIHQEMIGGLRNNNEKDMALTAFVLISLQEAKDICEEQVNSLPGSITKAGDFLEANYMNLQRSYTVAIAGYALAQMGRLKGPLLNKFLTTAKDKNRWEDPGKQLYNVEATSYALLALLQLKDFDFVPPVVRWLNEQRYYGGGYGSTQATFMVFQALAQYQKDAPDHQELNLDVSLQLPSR

[5] = target: Human C3b (plasma-purified) (human) (UniProt P01024); experiment: SPR (Biacore), coupled C3b
Sequence of Human C3b (plasma-purified) (human) (P01024 23-667 limits assumed, chain 1 of 2): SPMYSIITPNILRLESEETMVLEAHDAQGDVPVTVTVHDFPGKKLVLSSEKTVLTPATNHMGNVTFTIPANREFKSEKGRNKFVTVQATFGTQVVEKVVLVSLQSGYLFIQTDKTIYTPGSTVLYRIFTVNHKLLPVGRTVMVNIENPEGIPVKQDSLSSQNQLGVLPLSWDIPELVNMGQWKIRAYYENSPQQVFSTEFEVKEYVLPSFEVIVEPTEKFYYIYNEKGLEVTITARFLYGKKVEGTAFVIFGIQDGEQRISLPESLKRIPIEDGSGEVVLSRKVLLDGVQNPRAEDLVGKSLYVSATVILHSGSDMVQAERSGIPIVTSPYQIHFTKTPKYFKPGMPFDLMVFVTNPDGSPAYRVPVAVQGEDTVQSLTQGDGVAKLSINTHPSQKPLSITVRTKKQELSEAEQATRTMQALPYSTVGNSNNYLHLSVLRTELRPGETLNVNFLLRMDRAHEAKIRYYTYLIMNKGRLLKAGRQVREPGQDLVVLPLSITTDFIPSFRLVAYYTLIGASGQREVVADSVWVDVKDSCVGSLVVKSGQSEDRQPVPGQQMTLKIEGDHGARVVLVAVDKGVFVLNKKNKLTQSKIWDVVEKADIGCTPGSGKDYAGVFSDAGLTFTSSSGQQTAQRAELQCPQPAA
Sequence of Human C3b (plasma-purified) (human) (P01024 749-1663 limits assumed, chain 2 of 2): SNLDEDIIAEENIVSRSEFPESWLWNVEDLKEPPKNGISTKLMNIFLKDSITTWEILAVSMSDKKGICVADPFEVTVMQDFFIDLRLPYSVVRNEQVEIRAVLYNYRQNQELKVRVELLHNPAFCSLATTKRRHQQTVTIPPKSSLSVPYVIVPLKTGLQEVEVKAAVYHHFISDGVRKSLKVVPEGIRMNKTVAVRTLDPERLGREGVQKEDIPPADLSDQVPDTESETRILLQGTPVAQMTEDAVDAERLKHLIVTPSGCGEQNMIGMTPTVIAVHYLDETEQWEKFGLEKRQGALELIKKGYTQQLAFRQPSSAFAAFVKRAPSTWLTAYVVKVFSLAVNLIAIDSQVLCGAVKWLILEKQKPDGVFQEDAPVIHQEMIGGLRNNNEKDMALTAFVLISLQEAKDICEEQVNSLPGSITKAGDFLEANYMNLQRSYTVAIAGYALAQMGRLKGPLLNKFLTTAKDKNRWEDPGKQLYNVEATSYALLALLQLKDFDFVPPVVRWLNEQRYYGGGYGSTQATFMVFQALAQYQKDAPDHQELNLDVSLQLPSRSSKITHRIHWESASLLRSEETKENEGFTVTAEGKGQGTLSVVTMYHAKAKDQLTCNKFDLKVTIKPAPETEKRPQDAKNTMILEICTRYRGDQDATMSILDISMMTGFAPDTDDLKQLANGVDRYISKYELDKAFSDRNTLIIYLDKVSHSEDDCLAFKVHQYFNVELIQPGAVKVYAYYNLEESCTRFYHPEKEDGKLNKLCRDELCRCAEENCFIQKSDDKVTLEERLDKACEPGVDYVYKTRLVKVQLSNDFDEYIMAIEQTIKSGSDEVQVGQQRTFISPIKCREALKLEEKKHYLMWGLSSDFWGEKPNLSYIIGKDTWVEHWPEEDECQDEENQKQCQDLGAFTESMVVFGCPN

[6] = target: T1, Human C3b (plasma-purified) (human, UniProt P01024 23-667; P01024 749-1663); experiment: SPR (Biacore), coupled C3b, TIGR4 experiment
T1 sequence (P01024 23-667 limits assumed, chain 1 of 2): as the sequence (P01024 23-667 limits assumed, chain 1 of 2) above
T1 sequence (P01024 749-1663 limits assumed, chain 2 of 2): as the sequence (P01024 749-1663 limits assumed, chain 2 of 2) above

[7] = target: T1, Human C3b (plasma-purified); experiment: SPR, amine-coupled C3b on C1 chip, equilibrium 1:1 fit
Procedure: The sensor chip was regenerated by 2×30 s injections of 1 M NaCl. Data were analysed using the Biacore evaluation software and equilibrium affinity parameters were calculated using a 1:1 binding affinity model.
Commercially sources plasma-purified human C3b, C3c and C3d were immobilized using standard amine coupling to different channels of the same C1 SPR chip (Biacore).

[8] = target: T1, Human C3b (plasma-purified); experiment: SPR, immobilised C3b
[9] = target: T1, Human C3b (plasma-purified); experiment: SPR, amine-coupled C3b on C1 chip
[10] = target: T2, Human C3d (plasma-purified) (human, UniProt P01024 1002-1303); experiment: SPR, immobilised C3d
T2 construct: domain: TED; also called TED of C3b
T2 sequence (P01024 1002-1303 limits assumed): as the sequence (P01024 1002-1303 limits assumed) above

[11] = target: B1; experiment: SPR, immobilised PspC fragment, CFH flowed over
[12] = target: B1; experiment: SPR
[13] = target: B1; experiment: SPR, TIGR4 fragment on NTA chip, CFH as analyte
[14] = target: B1; experiment: not stated there (SPR in the examples)
[15] = target: B1; experiment: SPR, His-SUMO-PspCN-Cys as ligand, plasma-purified CFH as analyte, kinetic analysis
[16] = target: B1; experiment: SPR, His-SUMO-Cys-PspCN as ligand, plasma-purified CFH as analyte, kinetic analysis

“PspCN (TIGR4 68-148), fragment of PspC (CbpA) of S. pneumoniae strain TIGR4” was tested, and the Kd [1] was less than 0.018 nM, the Kd [2] was 0.001 pM and the Kd [3] was less than 0.018 nM.

Molecule CFH:TIGR4 (37-179) complex has a Kd [4] of 1200 nM and a Kd [5] of 280 nM.

In the case of B1, the Kd [6] is reported as 550 nM and the Kd [7] is reported as 490 nM.

B2: Plasma CFH:PspCN complex (other)
chain 1: EDCNELPPRRNTEILTGSWSDQTYPEGTQAIYKCRPGYRSLGNVIMVCRKGEWVALNPLRKCQKRPCGHPGDTPFGTFTLTGGNVFEYGVKAVYTCNEGYQLLGEINYRECDTDGWTNDIPICEVVKCLPVTAPENGKIVSSAMEPDREYHFGQAVRFVCNSGYKIEGDEEMHCSDDGFWSKEKPKCVEISCKSPDVINGSPISQKIIYKENERFQYKCNMGYEYSERGDAVCTESGWRPLPSCEEKSCDNPYIPNGDYSPLRIKHRTGDEITYQCRNGFYPATRGNTAKCTSTGWIPAPRCTLKPCDYPDIKHGGLYHENMRRPYFPVAVGKYYSYYCDEHFETPSGSYWDHIHCTQDGWSPAVPCLRKCYFPYLENGYNQNYGRKFVQGKSIDVACHPGYALPKAQTTVTCMENGWSPTPRCIRVKTCSKSSIDIENGFISESQYTYALKEKAKYQCKLGYVTADGETSGSITCGKDGWSAQPTCIKSCDIPVFMNARTKNDFTWFKLNDTLDYECHDGYESNTGSTTGSIVCGYNGWSDLPICYERECELPKIDVHLVPDRKKDQYKVGEVLKFSCKPGFTIVGPNSVQCYHFGLSPDLPICKEQVQSCGPPPELLNGNVKEKTKEEYGHSEVVEYYCNPRFLMKGPNKIQCVDGEWTTLPVCIVEESTCGDIPELEHGWAQLSSPPYYYGDSVEFNCSESFTMIGHRSITCIHGVWTQLPQCVAIDKLKKCKSSNLIILEEHLKNKKEFDHNSNIRYRCRGKEGWIHTVCINGRWDPEVNCSMAQIQLCPPPPQIPNSHNMTTTLNYRDGEKVSVLCQENYLIQEGEEITCKDGRWQSIPLCVEKIPCSQPPQIEHGTINSSRSSQESYAHGTKLSYTCEGGFRISEENETTCYMGKWSSPPQCEGLPCKSPPEISHGVVAHMSDSYQYGEEVTYKCFEGFGIDGPAIAKCLGEKWSHPPSCIKTDCLSLPSFENAIPMGEKKDVYKAGEQVTYTCATYYKMDGASNVTCINSRWTGRPTCRDTSCVNPPTVQNAYIVSRQMSKYPSGERVRYQCRSPYEMFGDEEVMCLNGNWTEPPQCKDSTGKCGPPPPIDNGDITSFPLSVYAPASSVEYQCQNLYQLEGNKRITCRNGQWSEPPKCLHPCVISREIMENYNIALRWTAKQKLYSRTGESVEFVCKRGYRLSSRSHTLRTTCWDGKLEYPTCAKR
chain 2: ATENEGSTQAATSSNMAKTEHRKAAKQVVDEYIEKMLREIQLDRRKHTQNVALNIKLSAIKTKYLRELNVLEEKSKDELPSEIKAKLDAAFEKFKKDTLKPGEK
notes: also called PspCN:CFH
In the case of B2, the Kd [7] is reported as 160 nM, the “fold difference in affinity against CFH” value [8] is reported as 4 fold and the “fold better binding than CFH alone” value [9] is reported as 3 fold. For the same molecule, the “fold better binding than intact CFH” value [10] was greater than 50 fold.

B3: PspC (52-140) (other)
chain: MAKTEHRKAAKQVVDEYIEKMLREIQLDRRKHTQNVALNIKLSAIKTKYLRELNVLEEKSKDELPSEIKAKLDAAFEKFKKDTLKPGEK
B3: binds [11].

B4: SUMO (fusion partner alone) (other, UniProt Q12306 3-98, looked up)
chain: DSEVNQEAKPEVKPEVKPETHINLKVSDGSSEIFFKIKKTTPLRRLMEAFAKRQGKEMDSLRFLYDGIRIQADQTPEDLDMEDNDIIEAHREQIGG
B4: no binding [12].

B5: PspCN (TIGR4 37-179), fragment of PspC (CbpA) of S. pneumoniae strain TIGR4 (other)
chain: ATENEGATQVPTSSNRANESQAEQGEQPKKLDSERDKARKEVEEYVKKIVGESYAKSTKKRHTITVALVNELNNIKNEYLNKIVESTSESQLQILMMESRSKVDEAVSKFEKDSSSSSSSDSSTKPEASDTAKPNKPTEPGEK
notes: not shown: N-terminal hexaHis-SUMO tag used for capture on the NTA chip
B5 showed a Kd [13] of less than 0.01 nM.

B6: PspC (62-140) (other)
chain: KQVVDEYIEKMLREIQLDRRKHTQNVALNIKLSAIKTKYLRELNVLEEKSKDELPSEIKAKLDAAFEKFKKDTLKPGEK
B6 was tested, and the Kd [14] was roughly 0.05 pM.

B7: His-SUMO-PspCN-Cys (other)
chain: ATENEGSTQAATSSNMAKTEHRKAAKQVVDEYIEKMLREIQLDRRKHTQNVALNIKLSAIKTKYLRELNVLEEKSKDELPSEIKAKLDAAFEKFKKDTLKPGEKGSGSGSGSGGC
notes: also called PspCN-Cys (as SPR ligand); not shown: N-terminal His-SUMO tag
Molecule B7 has a Kd [15] of roughly 0.0001 nM.

B8: His-SUMO-Cys-PspCN (other)
chain: CGSGSGSGSGGATENEGSTQAATSSNMAKTEHRKAAKQVVDEYIEKMLREIQLDRRKHTQNVALNIKLSAIKTKYLRELNVLEEKSKDELPSEIKAKLDAAFEKFKKDTLKPGEK
notes: also called Cys-PspCN (as SPR ligand); not shown: N-terminal His-SUMO tag
Molecule B8 has a Kd [16] of roughly 0.0001 nM.
